Data from PMC9709291 (Frontiers in Immunology, 2022).

Molecular target: TcdA^1073-1464 (fragment of the delivery and receptor-binding domain of TcdA, residues 1073-1464) (Clostridioides difficile VPI10463, UniProt P16154)
Assay: pull-down
Conditions: both partners purified

TcdA^1073-1464 (fragment of the delivery and receptor-binding domain of TcdA, residues 1073-1464), sequence (P16154 1073-1464): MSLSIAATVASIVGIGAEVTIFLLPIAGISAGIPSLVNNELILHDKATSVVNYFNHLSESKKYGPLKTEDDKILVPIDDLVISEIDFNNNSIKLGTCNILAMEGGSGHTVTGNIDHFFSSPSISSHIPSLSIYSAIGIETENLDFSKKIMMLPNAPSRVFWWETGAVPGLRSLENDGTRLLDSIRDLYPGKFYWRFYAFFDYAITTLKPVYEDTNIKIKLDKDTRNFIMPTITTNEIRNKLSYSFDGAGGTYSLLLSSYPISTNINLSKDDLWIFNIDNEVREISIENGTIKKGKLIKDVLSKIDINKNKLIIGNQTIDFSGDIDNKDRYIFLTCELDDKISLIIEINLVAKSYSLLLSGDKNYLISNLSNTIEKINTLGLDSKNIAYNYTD

B1: VHH AA6 (VHH)
VHH: QVQLVESGGGLVQPGGSLRLSCAASGFTFSDYVMTWVRQAPGKGPEWIATINTDGSTMRDDSTKGRFTISRDNAKNTLYLQMTSLKPEDTALYYCARGRVISASAIRGAVRGPGTQVTVSS
Question: Does B1 bind?
Answer: binds
